Drawing on patent US20230226096A1 (Orna Therapeutics, Inc., priority 2020, published 2023), this text covers Expression for 7 molecules.

To fix the notation:
B1: Rabbit Kobuvirus (nucleic acid, listed as Kobuvirus sp.)
DNA: GGGCTATAAATATGGGCATTCCTCTTCCCCCTTCCCCTTTTGAAGATGAGTGCGCATATTCTTGACTCCGCCTGGATTGGCCGCCCAAGGCGTGAACAAGCAGCTAGGCCACCATGACACTGCGGTGGTGTCCGAACCCGCGGGTGCCTTCACGGGCACCTGTGGTATGTAGGACTCCCACCGTGGTCTTCCCTTTCCCCCTCAATCTTTCCCCCTGGTTCGACTAACGGGACCAGTGCTGGAACCTGTCCGGTGAACGGTATAGCAGGCCCCCCCGGCAGAAACACCCGGTGCTTACCCCTTAAGGCTAGCCCCCTTCCATGAATTTGGTTGGGGCAACTAGTGGGTGTACAGTTGGCGTGAACCCTCCGGTCTAGGAGTGCTCTTGCCCAATCCTCTGTGTGTGCCTTGCAGTAGGGACTGGCAATCCTTCGCGTAGGTGATCCGCTGTGCCATGCCATCCTGGCGACAGGAGGCCCAGTGTGCGCAACCTACGTCCCTTCTGGGTGCTGCATTGCATTACCTTTGGAGTAAGCTTGGTGTGCCGAAACCCCAGGGTTTACGTACCACTCGTGGTGTGAGGAATGTGCCGCAGGTACCCCATCCTTGAGGTGGGATCTGAGCGGTAGCTAATTGTCTAGCACCACTTTCTTCCTTTTTTCTTTGCTGGTCACG
B2: Aalivirus (nucleic acid, listed as Aalivirus sp.)
DNA: TTGAAAGGGGGTGCTCAGGGTAGCTCCCTGAGCTCTTCCCTCCACCCTCTTTCAACGTCTGGCCCACGATACGGGCCACCTTTCAATCTTAACTAACTATCCCTTTAATCTATTTGGATTTTCTGGTTTAGAATAATTTGGAACACATAATTGGATTATCTTTTAGGATTGTGGATAGGATTTGTTCGGGATATCACTCCCTTCCTGTGCTAACACATATTCTAATTCCCTCCTTTGTCTATTATCTCTTGGAGGTGGTGCTGAAATATTGCAAGCCACTTGAGTGTATAGATGAAGTAGGCTCAAGATGAATGTTGTGTTACTCAAGGCAAGTGTAGCTATCACTAAGATATTGGTAACGTGAAACGGATTACCGGTAGTAGCGTGATCTTCCGTCTTAGTGCTCTAGTGACTAGAGGACAACGACATGGCATCACATATCTTAACCCTCCAGTTTTGGCATCCGGGACAGAATGGGCTGGATATCCGCTTTCTTTCTGGGGTATGTGATGGGTGGTATTGGGGTAACCACCTTGACCATGACGCTCGATAAGAGTGACCGCCTGATCATTGAAACCTCTAGTATAAAATTCAGGCTGAAATC
B3: Murine Kobuvirus 1 (nucleic acid, listed as Kobuvirus sp.)
DNA: GTAACTTCAAGTGTGTGTGCTCGTAATCTTGACTCCTGCCGGAATGCCGCCCGGTTCAGTGAACAAACAGCTAGGCAAGTCCCTCCCTTCCCCTGTGGTCGGTTCTCACCGGCCACCATCCCTCCCCCAGCCTGACGTGTTACAGGCTGTGCAAAGCCCCCGCGAAAGCTGCTCACGTGGCAATTGTGGGTCCCCCCTTTGTCAAGACACCGAGTCTTTCTCCCTTAAGGCTAGCCCGGTCCCACGAACGTGGAACTGGCAACTAGTGGTGTCACTACACGCCTCCGACCTCGGACGCGGAGTGCTGTTCCCCAAGCTGTAACCCTGACCCAAGACTGTGCTGCCTGGCAAGCACCGTCTGGGAAGATGTTCCGCTGTGGCTGCCAAACCTGGTAACAGGTGCCCCAGTGTGTGTAGTCTTCCTCCAGTCTCCGGACTGGCAGTCTTGTGTAAAGATGCAGTGTAAGGTTCAAGTGCCAAATCCCTGGAAGGAGTGACCCTCTACTGCCCTAGGAATGCTGTGCAGGTACCCCCAACTTCGGTTGGGGATCTGAGCACAGGCTAATTGTCTACGGGTAGTTTCATTTCCCATCCTCTCTTTTTTGGCATC
B4: Porcine Kobuvirus XX (nucleic acid, listed as Kobuvirus sp.)
DNA: CCACCGTTACTTCACTCCACTCCCTCGGGACTGGTTTGGAGGAGCATAACAGGGCTTCCCATCCCTGTTCACCCTCAATACCACCCACCCTTTCCCTCAACCATCCCTATCCACACCCCACTGACTGATTCCCTTGGATTTTGACCTCAGAACGCCTACTTGACCTCCCACTTGCCTTTCCCTTCTCGGATTGCCGGTGGTGCCTGGCGGAAAAAGCACAAGTGTGTTGCAGGCTACCAAACTCCTACCCGACAAAGGTACGTGTCCGCGTGCTGAGTAATGGGATAGGAGATGCCTACAACAGGCTCGCCCATGAGTAGAGCATGGACTGCGGTGCATGTGACTTCGGTCACCACGGGCATAGCATTGCTCACCCGTGAATCAAGTCATTGAGATTCCTCTGACCTCTGAAGTGCACTGTGGTTGCGTGGCTGGGAATCCACGCTTGACCATGTACTGCTTGATAGAGTCGCGGCTGGCCGACTCATGGGTTAAAGTCAGTTGATAAGACAC
B5: Caprine Kobuvirus 12Q108 (nucleic acid, listed as Kobuvirus sp.)
DNA: GGGGGTGGGGGGGGCCTCGGCCCCCTCACCCTCTTTTCCGGTGGCCACGCCCGGGCCACCGATACTTCCCTTCACTCCTTCGGGACTGTTGGGGAGGAACACAACAGGGCTCCCCTGTTTTCCCATTCCTTCCCCCTTTTCCCAACCCCAACCGCCGTATCTGGTGGCGGCAAGACACACGGGTCTTTCCCTCTAAAGCACAATTGTGTGTGTGTCCCAGGTCCTCCTGCGTACGGTGCGGGAGTGCTCCCACCCAACTGTTGTAAGCCTGTCCAACGCGTCGTCCTGGCAAGACTATGACGTCGCATGTTCCGCTGCGGATGCCGACCGGGTAACCGGTTCCCCAGTGTGTGTAGTGCGATCTTCCAGGTCCTCCTGGTTGGCGTTGTCCAGAAACTGCTTCAGGTAAGTGGGGTGTGCCCAATCCCTACAAAGGTTGATTCTTTCACCACCTTAGGAATGCTCCGGAGGTACCCCAGCAACAGCTGGGATCTGACCGGAGGCTAATTGTCTACGGGTGGTGTTTCCTTTTTCTTTTCACACAACTCTACTGCTGACAACTCACTGACTATCCACTTGCTCTCTTGTGCCTTTCTGCTCTGGTTCAAGTTCCTTGATTGTTTTTGACTGCTTTTCACTGCTTTTCTTCTCACAATCCTTGCTCAGTTCAAAGTC
B6: Grusopivirus A (nucleic acid)
DNA: TGCCTGAGTAGGATTGTGAATTTAGGTATGAGAGGGTTAGCCAACCCATTCTGAACCATAATAGATACGTCAATCTGAATCCATCTAAATCTATCTCTTAGGCAGTGGTGCTGAAATATTGCAAGCTACTAGGGATAGACGTGATCTGATTCAAGAACCTATCTAATGTGGTGATGAGAAGGCTAGGTTTATCCATAGTAATCCCTTGTTCTGAACAGGCAATGCACATGCTCTAGTAGGATCTCGGGCTCTGCGATTGGCTCTAAACCGACCAATCCAGGTAGAGGCACTAAGTGTAGGACTTGCCAAAATGTATTACATGCTGGTACCGACTCACTAGTCTGGAAACTCCACACTGAAAGTGACTGGGGGGGGCCCCATCACATTTGTGCTACTGCTTGATAGAGTTGCGGCTGGTCAACTTGGATTGGTATAACCAGTTGAA
modifications: Grusopivirus A
B7: Grusopivirus B (nucleic acid)
DNA: GCCATCCGTAGGTTCTGGTAAGGTTCCATCAACTGTTGGGGCGCTAGTTGCTATGACCGCATTCACGGACGGATGATTTATAGTATCACCCAATCCGGGCACAACTTCTTTAGCCACTTCTTCCACATTACTAAGGGCTCTCTTGCCGAGTTTCAACGTCTAGTCCACGACACGGACCTTCCTACTTTTCTATCTTCTTATTTTCTCTACTAAATTGGTATCTGGTACTGAAGATATGCGGATTGTGATTTTGTGCCTGTCTAAACTAACCCTATTCTAGGGTTAGGTGGGTACCATATACTAATGGTGAACAGGATTACCTATGTATCCATTAGTCCCTATGGATCTGGCGACCCACAAACTCATGTTCATAGAGAGGCTAAGCTGAGTGCTCGCCGAATAAGCATTGCTTCAGGTGCCGACTATTGTCTGGAAACCACTCAGTGATAGCTATAGGGGGGGGCCCCGTAGCATCTGCCTTACTGCCTGATAGGGTGGCGGCTGGTCCATGAACATGCAGTAACCAGTTGACTTGAC
modifications: Grusopivirus B

The test system of this series is HEK293 cells. Type of series: cell-based, human. Particulars: luminescence from secreted Gluc in supernatant 24 hours after transfection of HEK293 cells; circular RNA encoding Gluc with the named IRES (UTR truncated to 675 nt).
B1: the Expression was 3.73E+07. The figure for B2 is 2.65E+05; for B3 it is 1.60E+07; for B4 it is 1.32E+07. Turning to B5, the Expression came to 2.87E+08. The molecule B6 came in with an Expression of 1.09E+05.

Turning to B7, the Expression worked out at 2.12E+05.
